In US20170081400A1 (CEPHALON, published 2017):

T1: human TL1A extracellular domain with N-terminal HIS and FLAG tag (human, UniProt O95150 72-251)
T1 construct: whole entry named. ~70 kDa fraction purified by gel filtration
T1 sequence: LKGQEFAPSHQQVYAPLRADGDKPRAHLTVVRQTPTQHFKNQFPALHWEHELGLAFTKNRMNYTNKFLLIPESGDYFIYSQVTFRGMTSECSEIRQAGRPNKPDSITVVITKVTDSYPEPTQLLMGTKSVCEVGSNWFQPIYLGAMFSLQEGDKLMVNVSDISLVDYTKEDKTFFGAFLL

T2: human TL1A extracellular domain with N-terminal HIS and FLAG tag (human, UniProt O95150 72-251)
T2 construct: the whole entry is named; also called TNFSF15
T2 sequence: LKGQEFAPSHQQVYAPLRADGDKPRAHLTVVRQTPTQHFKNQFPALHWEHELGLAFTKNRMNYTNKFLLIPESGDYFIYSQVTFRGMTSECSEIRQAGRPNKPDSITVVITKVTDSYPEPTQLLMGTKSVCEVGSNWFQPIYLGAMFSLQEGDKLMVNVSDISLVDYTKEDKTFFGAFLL


Legend:
[1] = target: T1, human TL1A extracellular domain with …; assay: SPR run 2; supernatant on Protein A; TL1A 10 ug/mL; timepoint 220
From the text: (§1) 1.5. Antibody expression and antigen binding as determined by SPR. Using a CM5 sensor chip (GE Healthcare) Protein A (Pierce) was coupled to the chip surface using an amine coupling kit (GE Healthcare). Protein A was coupled on flow cell 1 and 2 (or alternatively 3 and 4) using a BIACORE® T200. […] The amount of supernatant or purified protein (as well as the concentration) injected during the capture stage varied between runs and is specified in the header of the Tables 3-11. At the end of injection of the supernatant or purified antibody the change in response units was measured. This value was reported as Capture Level in Tables 3-11. […] The response units were measured prior to the end of the dissociation phase. […] The sensorgrams were double referenced (flow cell 2 is subtracted from flow cell 1 and a buffer blank). As there were a large number of antibody variants to screen, these were screened across different runs (Tables 3-11). […] A summary of the conditions used in each run is below:
(§2) 2.1. […] In some experiment the antibodies were purified using Protein A chromatography (See 1.4) and purified antibodies were used in BIACORE® (GE Healthcare) experiments.

[2] = target: T1, human TL1A extracellular domain with …; assay: SPR run 2; supernatant on Protein A; TL1A 10 ug/mL; timepoint 44
From the text: as §1, §2

[3] = target: T2, human TL1A extracellular domain with …; assay: SPR Run 7, antibody on Protein A, TL1A 5 ug/mL, timepoint 220
Summary of the method: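 CM5 chip, amine-coupled Protein A; capture of supernatant or purified Ab (load varies per run); capture level = ΔRU at end of injection; binding RU read late in dissociation; double referencing (reference cell + buffer blank).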

[4] = target: T2, human TL1A extracellular domain with …; assay: SPR Run 7, antibody on Protein A, TL1A 5 ug/mL, timepoint 44
Summary of the method: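 The capture level was the response change at the end of loading, which varied by run. Antigen response was read before dissociation ended, double-referenced against a reference flow cell and a buffer blank.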

| TL1A Binding Level (Late) [1] [RU] | TL1A Binding Level (Early) [2] [RU] | TL1A Binding Level (Late) [3] [RU] | TL1A Binding Level (Early) [4] [RU] | Binder |
| --- | --- | --- | --- | --- |
| – | – | 65 | 70 | 320-581 (antibody, human IgG1, name in Kabat numbering, V domains shown, full-length human IgG1, lambda) VH: QVQLVQSGAEVKKPGASVKVSCKASGYTFTSYDINWVRQAPGQGLEWMGWLNPNSGNTGLAQKFQGRVTMTADRSTSTAYMELSSLRSEDTAVYYCAREVPETAAFEYWGQGTLVTVSS VL: QSVLTQPPSVSGAPGQRVTISCTSSSSDIGAGLGVHWYQQLPGTAPKLLIEGYYNRPSGVPDRFSGSKSGTSASLTITGLLPEDEGDYYCQSYDGTLSALFGGGTKLTVLG |
| – | – | 52 | 67 | 320-582 (antibody, human IgG1, name in Kabat numbering, V domains shown, full-length human IgG1, lambda) VH: QVQLVQSGAEVKKPGASVKVSCKASGYTFTSYDINWVRQAPGQGLEWMGWLNPNSGNTGWAQKFQGRVTMTADRSTSTAYMELSSLRSEDTAVYYCAREVPETAAFEYWGQGTLVTVSS VL: QSVLTQPPSVSGAPGQRVTISCTSSSSDIGAGLGVHWYQQLPGTAPKLLIEGYYNRPSGVPDRFSGSKSGTSASLTITGLLPEDEGDYYCQSYDGTLSALFGGGTKLTVLG |
| 199 | 220 | – | – | 320-215 (antibody, human IgG1, name in Kabat numbering, V domains shown, human IgG1, lambda) VH: QVQLVQSGAEVKKPGASVKVSCKASGYTFTSYDINWVRQAPGQGLEWMGWLNPNSGNTGYAQKFQGRVTMTADRSTSTAYMELSSLRSEDTAVYYCAREVPETAAFEYWGQGTLVTVSS VL: QSVLTQPPSVSGAPGQRVTISCTSWSSDIGAGLGVHWYQQLPGTAPKLLIEGYYNRPSGVPDRFSGSKSGTSASLTITGLLPEDEGDYYCQSYDGTLSALFGGGTKLTVLG |
| 196 | 221 | – | – | 320-214 (antibody, human IgG1, name in Kabat numbering, V domains shown, human IgG1, lambda) VH: QVQLVQSGAEVKKPGASVKVSCKASGYTFTSYDINWVRQAPGQGLEWMGWLNPNSGNTGYAQKFQGRVTMTADRSTSTAYMELSSLRSEDTAVYYCAREVPETAAFEYWGQGTLVTVSS VL: QSVLTQPPSVSGAPGQRVTISCTSLSSDIGAGLGVHWYQQLPGTAPKLLIEGYYNRPSGVPDRFSGSKSGTSASLTITGLLPEDEGDYYCQSYDGTLSALFGGGTKLTVLG |
| 147 | 171 | – | – | 320-216 (antibody, human IgG1, name in Kabat numbering, V domains shown, human IgG1, lambda) VH: QVQLVQSGAEVKKPGASVKVSCKASGYTFTSYDINWVRQAPGQGLEWMGWLNPNSGNTGYAQKFQGRVTMTADRSTSTAYMELSSLRSEDTAVYYCAREVPETAAFEYWGQGTLVTVSS VL: QSVLTQPPSVSGAPGQRVTISCTSYSSDIGAGLGVHWYQQLPGTAPKLLIEGYYNRPSGVPDRFSGSKSGTSASLTITGLLPEDEGDYYCQSYDGTLSALFGGGTKLTVLG |
| 235 | 258 | – | – | 320-217 (antibody, human IgG1, name in Kabat numbering, V domains shown, human IgG1, lambda) VH: QVQLVQSGAEVKKPGASVKVSCKASGYTFTSYDINWVRQAPGQGLEWMGWLNPNSGNTGYAQKFQGRVTMTADRSTSTAYMELSSLRSEDTAVYYCAREVPETAAFEYWGQGTLVTVSS VL: QSVLTQPPSVSGAPGQRVTISCTSSASDIGAGLGVHWYQQLPGTAPKLLIEGYYNRPSGVPDRFSGSKSGTSASLTITGLLPEDEGDYYCQSYDGTLSALFGGGTKLTVLG |
| 205 | 226 | – | – | 320-212 (antibody, human IgG1, name in Kabat numbering, V domains shown, human IgG1, lambda) VH: QVQLVQSGAEVKKPGASVKVSCKASGYTFTSYDINWVRQAPGQGLEWMGWLNPNSGNTGYAQKFQGRVTMTADRSTSTAYMELSSLRSEDTAVYYCAREVPETAAFEYWGQGTLVTVSS VL: QSVLTQPPSVSGAPGQRVTISCTSHSSDIGAGLGVHWYQQLPGTAPKLLIEGYYNRPSGVPDRFSGSKSGTSASLTITGLLPEDEGDYYCQSYDGTLSALFGGGTKLTVLG |
| 230 | 253 | – | – | 320-220 (antibody, human IgG1, name in Kabat numbering, V domains shown, human IgG1, lambda) VH: QVQLVQSGAEVKKPGASVKVSCKASGYTFTSYDINWVRQAPGQGLEWMGWLNPNSGNTGYAQKFQGRVTMTADRSTSTAYMELSSLRSEDTAVYYCAREVPETAAFEYWGQGTLVTVSS VL: QSVLTQPPSVSGAPGQRVTISCTSSHSDIGAGLGVHWYQQLPGTAPKLLIEGYYNRPSGVPDRFSGSKSGTSASLTITGLLPEDEGDYYCQSYDGTLSALFGGGTKLTVLG |

Second part, the binder before the results:

| Binder | TL1A Binding Level (Late) [1] [RU] | TL1A Binding Level (Early) [2] [RU] | TL1A Binding Level (Late) [3] [RU] | TL1A Binding Level (Early) [4] [RU] |
| --- | --- | --- | --- | --- |
| 320-192 (antibody, human IgG1, name in Kabat numbering, V domains shown, human IgG1, lambda) VH: QVQLVQSGAEVKKPGASVKVSCKASGYTFTSYDINWVRQAPGQGLEWMGWLNPNSGNTGYAQKFQGRVTMTADRSTSTAYMELSSLRSEDTAVYYCAREVPETAAFEYWGQGTLVTVSS VL: QSVLTQPPSVSGAPGQRVTISCASSSSDIGAGLGVHWYQQLPGTAPKLLIEGYYNRPSGVPDRFSGSKSGTSASLTITGLLPEDEGDYYCQSYDGTLSALFGGGTKLTVLG | 218 | 238 | – | – |
| 320-196 (antibody, human IgG1, name in Kabat numbering, V domains shown, human IgG1, lambda) VH: QVQLVQSGAEVKKPGASVKVSCKASGYTFTSYDINWVRQAPGQGLEWMGWLNPNSGNTGYAQKFQGRVTMTADRSTSTAYMELSSLRSEDTAVYYCAREVPETAAFEYWGQGTLVTVSS VL: QSVLTQPPSVSGAPGQRVTISCHSSSSDIGAGLGVHWYQQLPGTAPKLLIEGYYNRPSGVPDRFSGSKSGTSASLTITGLLPEDEGDYYCQSYDGTLSALFGGGTKLTVLG | 228 | 250 | – | – |
| 320-210 (antibody, human IgG1, name in Kabat numbering, V domains shown, human IgG1, lambda) VH: QVQLVQSGAEVKKPGASVKVSCKASGYTFTSYDINWVRQAPGQGLEWMGWLNPNSGNTGYAQKFQGRVTMTADRSTSTAYMELSSLRSEDTAVYYCAREVPETAAFEYWGQGTLVTVSS VL: QSVLTQPPSVSGAPGQRVTISCTSQSSDIGAGLGVHWYQQLPGTAPKLLIEGYYNRPSGVPDRFSGSKSGTSASLTITGLLPEDEGDYYCQSYDGTLSALFGGGTKLTVLG | 202 | 225 | – | – |
| 320-206 (antibody, human IgG1, name in Kabat numbering, V domains shown, human IgG1, lambda) VH: QVQLVQSGAEVKKPGASVKVSCKASGYTFTSYDINWVRQAPGQGLEWMGWLNPNSGNTGYAQKFQGRVTMTADRSTSTAYMELSSLRSEDTAVYYCAREVPETAAFEYWGQGTLVTVSS VL: QSVLTQPPSVSGAPGQRVTISCTLSSSDIGAGLGVHWYQQLPGTAPKLLIEGYYNRPSGVPDRFSGSKSGTSASLTITGLLPEDEGDYYCQSYDGTLSALFGGGTKLTVLG | 235 | 257 | – | – |
| 320-195 (antibody, human IgG1, name in Kabat numbering, V domains shown, human IgG1, lambda) VH: QVQLVQSGAEVKKPGASVKVSCKASGYTFTSYDINWVRQAPGQGLEWMGWLNPNSGNTGYAQKFQGRVTMTADRSTSTAYMELSSLRSEDTAVYYCAREVPETAAFEYWGQGTLVTVSS VL: QSVLTQPPSVSGAPGQRVTISCDSSSSDIGAGLGVHWYQQLPGTAPKLLIEGYYNRPSGVPDRFSGSKSGTSASLTITGLLPEDEGDYYCQSYDGTLSALFGGGTKLTVLG | 227 | 249 | – | – |
| 320-208 (antibody, human IgG1, name in Kabat numbering, V domains shown, human IgG1, lambda) VH: QVQLVQSGAEVKKPGASVKVSCKASGYTFTSYDINWVRQAPGQGLEWMGWLNPNSGNTGYAQKFQGRVTMTADRSTSTAYMELSSLRSEDTAVYYCAREVPETAAFEYWGQGTLVTVSS VL: QSVLTQPPSVSGAPGQRVTISCTYSSSDIGAGLGVHWYQQLPGTAPKLLIEGYYNRPSGVPDRFSGSKSGTSASLTITGLLPEDEGDYYCQSYDGTLSALFGGGTKLTVLG | 199 | 222 | – | – |
| 320-200 (antibody, human IgG1, name in Kabat numbering, V domains shown, human IgG1, lambda) VH: QVQLVQSGAEVKKPGASVKVSCKASGYTFTSYDINWVRQAPGQGLEWMGWLNPNSGNTGYAQKFQGRVTMTADRSTSTAYMELSSLRSEDTAVYYCAREVPETAAFEYWGQGTLVTVSS VL: QSVLTQPPSVSGAPGQRVTISCYSSSSDIGAGLGVHWYQQLPGTAPKLLIEGYYNRPSGVPDRFSGSKSGTSASLTITGLLPEDEGDYYCQSYDGTLSALFGGGTKLTVLG | 231 | 251 | – | – |
| 320-204 (antibody, human IgG1, name in Kabat numbering, V domains shown, human IgG1, lambda) VH: QVQLVQSGAEVKKPGASVKVSCKASGYTFTSYDINWVRQAPGQGLEWMGWLNPNSGNTGYAQKFQGRVTMTADRSTSTAYMELSSLRSEDTAVYYCAREVPETAAFEYWGQGTLVTVSS VL: QSVLTQPPSVSGAPGQRVTISCTHSSSDIGAGLGVHWYQQLPGTAPKLLIEGYYNRPSGVPDRFSGSKSGTSASLTITGLLPEDEGDYYCQSYDGTLSALFGGGTKLTVLG | 155 | 193 | – | – |
